{"source": "paper PMC6471826", "about": "“Cold-Adapted Glutathione S-Transferases from Antarctic Psychrophilic Bacterium Halomonas sp. ANT108: Heterologous Expression, Characterization, and Oxidative Resistance” (Marine Drugs, 2019)", "system": "O=[N+]([O-])c1ccc(Cl)c([N+](=O)[O-])c1", "test": "purified protein", "settings": "co-substrate GSH, CDNB 0.5-4.5 mM, 25 °C"}
{"substance": "rHsGST (Halomonas sp.)", "values": [{"measurement": "Km", "value": 2860, "unit": "µM"}, {"measurement": "kcat/Km", "value": 18800, "unit": "M⁻¹ s⁻¹"}]}
